Test results: publication PMC7820495

Target: GST-SVIP (Drosophila SVIP, CG32039) (Drosophila) (UniProt Q8IQC6)
Assay: pull-down; in vitro binding titration assay of GST-SVIP with MBP-VCP wild type and disease-relevant mutants; binding curves and affinities in Fig. 7b-e

Sequence of GST-SVIP (Drosophila SVIP, CG32039) (Drosophila) (Q8IQC6 entry or part of it): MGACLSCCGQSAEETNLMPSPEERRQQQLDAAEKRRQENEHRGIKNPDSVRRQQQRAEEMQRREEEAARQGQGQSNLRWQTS

- fold reduction of SVIP–VCP affinity against wild type: > 30 fold
Substance: MBP-VCP^P134L (Drosophila VCP) (from UniProt Q7KN62 1-801) (domain or fragment)
